Experimental findings from paper doi:10.1101/2024.02.20.581179 are described below.

Holding throughout (experiment): SEC
Test [1] addresses GST-tagged A. carterae eIF4E-2a (not stated | Amphidinium carterae).
Test [2] addresses GST-tagged A. carterae eIF4E-1d1 (not stated | Amphidinium carterae).
Test [3] deals with GST-tagged A. carterae eIF4E-1a (not stated | Amphidinium carterae).
The target of test [4] is GST-tagged mouse eIF4E-1 (not stated | mouse).

What is called stoichiometry N is a count of units in the complex or per binding partner. GST-tagged A. carterae eIF4E-2a registered a stoichiometry N in test [1] of 2.

GST-tagged A. carterae eIF4E-1d1 yielded a stoichiometry N in test [2] of 2.

GST-tagged A. carterae eIF4E-1a gave a stoichiometry N in test [3] of 2.

On to GST-tagged mouse eIF4E-1, for which, in test [4], the stoichiometry N worked out at 2.
